Measurements taken from article PMC10393190 (Genes & Development, 2022).
Substitutions are numbered along the chain they refer to. Like-named read-outs stand apart in the source and are kept apart here.

T1: Mer2 (Saccharomyces cerevisiae, UniProt P21651 1-314)
T1 sequence: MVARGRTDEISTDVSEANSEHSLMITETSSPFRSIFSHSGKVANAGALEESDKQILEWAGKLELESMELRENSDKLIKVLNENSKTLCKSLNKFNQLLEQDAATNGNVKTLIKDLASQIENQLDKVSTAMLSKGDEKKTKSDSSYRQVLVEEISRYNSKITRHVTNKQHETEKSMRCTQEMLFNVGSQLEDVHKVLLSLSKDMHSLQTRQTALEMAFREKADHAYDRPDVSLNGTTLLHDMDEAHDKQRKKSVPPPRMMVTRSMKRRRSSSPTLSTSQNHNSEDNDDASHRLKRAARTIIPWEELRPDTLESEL

T2: Rec114-6KR C-terminal domain;Mei4 N-terminal domain (Saccharomyces cerevisiae;Saccharomyces …, UniProt P32841;P29467 375-428;1-43, R395A;K396A;K399A;R400A;K403A;K407A|)
T2 sequence 1: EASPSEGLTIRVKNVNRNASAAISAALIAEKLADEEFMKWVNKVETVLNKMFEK
T2 sequence 2: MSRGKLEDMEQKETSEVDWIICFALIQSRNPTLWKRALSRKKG

T3: IHO1 coiled-coil domain (Mus musculus, UniProt Q6PDM4 109-267)
T3 sequence: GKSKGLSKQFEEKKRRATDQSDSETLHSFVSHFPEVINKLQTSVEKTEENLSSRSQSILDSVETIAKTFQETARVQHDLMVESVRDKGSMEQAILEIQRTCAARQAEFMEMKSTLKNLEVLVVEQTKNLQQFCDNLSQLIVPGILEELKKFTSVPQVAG

T4: Rec15 coiled-coil domain (Schizosaccharomyces pombe, UniProt Q09094 1-160)
T4 sequence: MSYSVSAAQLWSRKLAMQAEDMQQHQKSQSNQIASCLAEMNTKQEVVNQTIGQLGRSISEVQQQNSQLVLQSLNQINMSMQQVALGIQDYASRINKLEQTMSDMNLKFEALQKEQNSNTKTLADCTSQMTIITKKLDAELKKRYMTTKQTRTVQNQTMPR

T5: Mer2-KKTK mutant (Saccharomyces cerevisiae, UniProt P21651 1-314, K137A;K138A;K140A)
T5 sequence: T1 sequence with K137A, K138A, K140A

T6: Rec15-5KR coiled-coil domain (Schizosaccharomyces pombe, UniProt Q09094 1-160, K134A;K135A;K141A;K142A;R143A)
T6 sequence: T4 sequence with K134A, K135A, K141A, K142A, R143A

T7: IHO1-KKRR coiled-coil domain (Mus musculus, UniProt Q6PDM4 109-267, K121A;K122A;R123A;R124A)
T7 sequence: T3 sequence with K13A, K14A, R15A, R16A

B1: Mer2 N-terminal half of the coiled coil (residues 41–136) (domain or fragment)
chain: KVANAGALEESDKQILEWAGKLELESMELRENSDKLIKVLNENSKTLCKSLNKFNQLLEQDAATNGNVKTLIKDLASQIENQLDKVSTAMLSKGDE
B2: HisSUMO-IHO1 coiled-coil domain (residues 109–267) (M. musculus) (domain or fragment)
chain: T3 sequence
B3: Mer2 (residues 161–224) (domain or fragment)
chain: TRHVTNKQHETEKSMRCTQEMLFNVGSQLEDVHKVLLSLSKDMHSLQTRQTALEMAFREKADHA
B4: Rec114 C-terminal (dimerization) domain, residues 375–428 (domain or fragment)
chain: T2 sequence 1 with A21R, A22K, A25K, A26R, A29K, A33K
B5: Y (cb095/cb098/cb101) (structured_DNA)
DNA 1: CTAGTATAGAGCCGGCGCGCCATGTCTAGATAGCGTTAGGTCTGCCGAATAGTACTACTCGGATCCCGAGCGAACCACGC
DNA 2: CACGGGTAACCGCGGGTACCGTGAAGATCTACTCGCGTCTCCTAACGCTATCTAGACATGGCGCGCCGGCTCTATACTAG
DNA 3: GCGTGGTTCGCTCGGGATCCGAGTAGTACTATTCGGCAGAAGACGCGAGTAGATCTTCACGGTACCCGCGGTTACCCGTG
B6: HJ40 fluorescent (dd077/cb096/cb097/cb098) (structured_DNA)
DNA 1: B5 DNA 1
DNA 2: GCGTGGTTCGCTCGGGATCCGAGTAGTACTATTCGGCAGAGGATTCGAATAGGCCTAATCGAATTCCGCCATCGATGCAC
DNA 3: GTGCATCGATGGCGGAATTCGATTAGGCCTATTCGAATCCAGACGCGAGTAGATCTTCACGGTACCCGCGGTTACCCGTG
DNA 4: B5 DNA 2
B7: dsDNA 80 bp (cb095/cb100) (dsDNA)
DNA 1: B5 DNA 1
DNA 2: GCGTGGTTCGCTCGGGATCCGAGTAGTACTATTCGGCAGACCTAACGCTATCTAGACATGGCGCGCCGGCTCTATACTAG
B8: HisSUMO-Rec15 coiled-coil domain (residues 1–160) (S. pombe) (domain or fragment)
chain: T4 sequence
B9: Mei4 N-terminal domain, residues 1–43 (domain or fragment)
chain: T2 sequence 2
B10: HisSUMO-tagged Mer2 coiled-coil domain (residues 41–224) (domain or fragment)
chain: KVANAGALEESDKQILEWAGKLELESMELRENSDKLIKVLNENSKTLCKSLNKFNQLLEQDAATNGNVKTLIKDLASQIENQLDKVSTAMLSKGDEKKTKSDSSYRQVLVEEISRYNSKITRHVTNKQHETEKSMRCTQEMLFNVGSQLEDVHKVLLSLSKDMHSLQTRQTALEMAFREKADHA
B11: Mer2 C-terminal half of the coiled coil (residues 138–224) (domain or fragment)
chain: KTKSDSSYRQVLVEEISRYNSKITRHVTNKQHETEKSMRCTQEMLFNVGSQLEDVHKVLLSLSKDMHSLQTRQTALEMAFREKADHA
B12: HisSUMO-PRD3 coiled-coil domain (residues 120–270) (A. thaliana) (domain or fragment)
chain: IGESKSQISEELEQRFGMMETSLSRFGMMLDSIQSDIMQANRGTKEVFLETERIQQKLTLQDTSLQQLRKEQADSKASLDGGVKFILEEFSKDPNQEKLQKILQMLTTIPEQVETALQKIQREICHTFTREIQVLASLRTPEPRVRVPTAP

What was measured:
[1] = target: HisSUMO-PAIR1 coiled-coil domain (residues 140–310) (Z. mays) (Z. mays); test: SEC-MALS
[2] = target: HisSUMO-ASY2 coiled-coil domain (residues 55–275) (Sordaria macrospora) (Sordaria macrospora); test: SEC-MALS
SEC-MALS = target: the molecule itself; test: SEC-MALS
NMR = target: the molecule itself; test: NMR
Mer2 [3] = target: T1, Mer2; test: EMSA
[4] = target: T2, Rec114-6KR C-terminal domain;Mei4 …; test: EMSA
IHO1 coiled-coil domain = target: T3, IHO1 coiled-coil domain; test: EMSA
Rec15 coiled-coil domain = target: T4, Rec15 coiled-coil domain; test: EMSA
Mer2-KKTK mutant = target: T5, Mer2-KKTK mutant; test: EMSA
[5] = target: T6, Rec15-5KR coiled-coil domain; test: EMSA
[6] = target: T7, IHO1-KKRR coiled-coil domain; test: EMSA
Mer2 [7] = target: T1, Mer2; test: EMSA; remark: listed apart in the source
[8] = target: B4; test: NMR

Q: “HisSUMO-PAIR1 coiled-coil domain (residues 140–310) (Z. mays) (domain or fragment)” was tested. Which stoichiometry N [1] did it give?
A: The stoichiometry N was 4.

Q: With “HisSUMO-ASY2 coiled-coil domain (residues 55–275) (Sordaria macrospora) (domain or fragment)” as the molecule, how does the stoichiometry N [2] read?
A: Its stoichiometry N is 4.

Q: For B1, which “stoichiometry N” value (SEC-MALS) is on record?
A: The value was 2.

Q: B2 was tested. Which “stoichiometry N” value (SEC-MALS) did it give?
A: The value was 4.

Q: With B3 as the molecule, how does the “stoichiometry N” value (SEC-MALS) read?
A: The value was 3.

Q: Does B4 bind (NMR)?
A: Result: binds

Q: B5 was tested. Which “apparent K (half saturation)” value (Mer2 [3]) did it give?
A: Its value is 10.6 ± 1.2 nM.

Q: Does B6 bind [4]?
A: Result: no binding

Q: Does B6 bind (IHO1 coiled-coil domain)?
A: Result: binds

Q: Does B6 bind (Rec15 coiled-coil domain)?
A: Result: binds

Q: Does B6 bind (Mer2-KKTK mutant)?
A: Result: binds

Q: Does B6 bind [5]?
A: Result: no binding

Q: Does B6 bind [6]?
A: Result: no binding

Q: Which “apparent K (half saturation)” value (Mer2 [7]) does the source give for B7 here?
A: Its value is 36.8 ± 13.3 nM.

Q: With B8 as the molecule, how does the “stoichiometry N” value (SEC-MALS) read?
A: The value was 4.

Q: Does B9 bind [8]?
A: Result: binds

Q: Which “stoichiometry N” value (SEC-MALS) does the source give for B10 here?
A: Its value is 4.

Q: For B11, which “stoichiometry N” value (SEC-MALS) is on record?
A: Its value is 4.

Q: How did the “stoichiometry N” value (SEC-MALS) turn out when B12 was run?
A: Its value is 4.
